These results are taken from IntAct's records for PubMed 15064750.

First the molecules themselves.
B1: Proliferation-associated protein 2G4 (Homo sapiens), Q9UQ80 (parent)
chain: MSGEDEQQEQTIAEDLVVTKYKMGGDIANRVLRSLVEASSSGVSVLSLCEKGDAMIMEETGKIFKKEKEMKKGIAFPTSISVNNCVCHFSPLKSDQDYILKEGDLVKIDLGVHVDGFIANVAHTFVVDVAQGTQVTGRKADVIKAAHLCAEAALRLVKPGNQNTQVTEAWNKVAHSFNCTPIEGMLSHQLKQHVIDGEKTIIQNPTDQQKKDHEKAEFEVHEVYAVDVLVSSGEGKAKDAGQRTTIYKRDPSKQYGLKMKTSRAFFSEVERRFDAMPFTLRAFEDEKKARMGVVECAKHELLQPFNVLYEKEGEFVAQFKFTVLLMPNGPMRITSGPFEPDLYKSEMEVQDAELKALLQSSASRKTQKKKKKKASKTAENATSGETLEENEAGD

In this assay the parent is B1. The note with it: with npm_human NPM1, P06748.
Chain of npm_human NPM1, P06748 (P06748 whole entry): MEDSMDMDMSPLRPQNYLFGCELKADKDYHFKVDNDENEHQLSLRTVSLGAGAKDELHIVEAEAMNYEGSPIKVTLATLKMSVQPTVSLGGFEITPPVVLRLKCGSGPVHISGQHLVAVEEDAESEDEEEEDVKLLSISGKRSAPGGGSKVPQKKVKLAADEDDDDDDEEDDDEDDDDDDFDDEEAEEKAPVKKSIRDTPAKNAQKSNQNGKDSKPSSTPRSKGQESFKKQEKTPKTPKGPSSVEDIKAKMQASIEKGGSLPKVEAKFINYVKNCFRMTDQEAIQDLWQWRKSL
With MSGEDEQQEQTIAEDLVVTAYAMGGDIANRVLRSLVEASSSGVSVLSLCEKGDAMIMEETGKIFKKEKEMKKGIAFPTSISVNNCVCHFSPLKSDQDYILKEGDLVKIDLGVHVDGFIANVAHTFVVDVAQGTQVTGRKADVIKAAHLCAEAALRLVKPGNQNTQVTEAWNKVAHSFNCTPIEGMLSHQLKQHVIDGEKTIIQNPTDQQKKDHEKAEFEVHEVYAVDVLVSSGEGKAKDAGQRTTIYKRDPSKQYGLKMKTSRAFFSEVERRFDAMPFTLRAFEDEKKARMGVVECAKHELLQPFNVLYEKEGEFVAQFKFTVLLMPNGPMRITSGPFEPDLYKSEMEVQDAELKALLQSSASRKTQKKKKKKASKTAENATSGETLEENEAGD [K20A;K22A], the “effect of a mutation on the interaction” value is listed as “disrupting interaction”. With MSGEDEQQEQTIAEDLVVTKYKMGGDIANRVLRSLVEASSSGVSVLSLCEKGDAMIMEETGKIFKKEKEMKKGIAFPTSISVNNCVCHFSPLKSDQDYILKEGDLVKIDLGVHVDGFIANVAHTFVVDVAQGTQVTGRKADVIKAAHLCAEAALRLVKPGNQNTQVTEAWNKVAHSFNCTPIEGMLSHQLKQHVIDGEKTIIQNPTDQQKKDHEKAEFEVHEVYAVDVLVSSGEGKAKDAGQRTTIYKRDPSKQYGLKMKTSRAFFSEVERRFDAMPFTLRAFEDEKKARMGVVECAKHELLQPFNVLYEKEGEFVAQFKFTVLLMPNGPMRITSGPFEPDLYKSEMEVQDAELKALLQSSASAATQKKKKKKASKTAENATSGETLEENEAGD [R364A;K365A] the entry was “decreasing interaction”.
